{"source": "patent US7460961B2", "about": "“N-TRADD active site and uses thereof” (Genetics Institute, LLC, priority 2000, dated 2008)", "molecules": {"B1": {"name": "N-terminal domain of human TNFR-1 associated death domain protein (N-TRADD), residues 1-169, wild type (other)", "chain": "MAAGQNGHEEWVGSAYLFVESSLDKVVLSDAYAHPQQKVAVYRALQAALAESGGSPDVLQMLKIHRSDPQLIVQLRFCGRQPCGRFLRAYREGALRAALQRSLAAALAQHSVPLQLELRAGAERLDALLADEERCLSCILAQQPDRLRDEELAELEDALRNLKCGSGAR", "notes": "Expressed in E. coli BL-21; monomeric (>95%) by SEC-HPLC; 15N or 15N/13C labelled for NMR; also called N-TRADD (1-169); wild-type N-TRADD; not shown: His tag introduced after aa169"}}, "key": {"[1]": {"target": "T1, N-TRADD/C-TRAF2 interaction (Homo sapiens, UniProt Q12933)", "T1 construct": "The C-TRAF2 (residues 262-501) used in the instant HSQC titration experiment; initiator Met added before residue 262 (N); 6xHis (C); made in house; host or cells: C-TRAF2: baculovirus in 'Tini' cells; N-TRADD: E. coli BL-21", "T1 sequence (Q12933 262-501)": "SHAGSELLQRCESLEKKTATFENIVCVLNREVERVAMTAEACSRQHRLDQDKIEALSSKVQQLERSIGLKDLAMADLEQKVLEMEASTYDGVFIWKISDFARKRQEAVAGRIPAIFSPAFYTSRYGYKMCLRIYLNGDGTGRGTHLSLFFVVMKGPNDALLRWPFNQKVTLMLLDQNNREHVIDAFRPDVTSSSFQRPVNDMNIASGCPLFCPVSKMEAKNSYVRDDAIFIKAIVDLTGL", "test": "BIAcore competition for binding of N-TRADD to C-TRAF2", "experimental": "(§1) C-TRAF2 and N-TRADD binding studies: The affinity of wild-type N-TRADD and C-TRAF2 was measured by surface plasma resonance using a BIAcore 2000 system (Pharmacia Biosensor AB). C-TRAF2 (residues 262-501) was purified and coupled to a sensor chip CM5 by amine coupling at pH=5.0 to get about 800, 1500 and 5500 response units on three different flow cells. A constant flow (20 μL/min) of purified N-TRADD protein in 10 mM Hepes, pH=7.4, 150 mM NaCl, 3.4 mM EDTA and 0.05% P20 surfactant at 8 different concentrations from 650 μM to 84 μM was applied over the protein coupled chip for 2 min to analyze the association. Binding constants were obtained from the BIAevaluation software.\nIn the instant studies, the interaction between a 13-mer peptide derived from CD40 (a longer version of CD40 -pl, with sequences SNTAAPVQETLHG (SEQ ID NO:2)) with C-TRAF2 was characterized, as well as its effect on the N-TRADD/C-TRAF2 interaction. […] In addition the peptide was also able to compete for the binding of N-TRADD to C-TRAF2, with an IC50 of ˜1 mM.\nIn addition to this 13-mer peptide, the effect of the CD40-p1 peptide (McWhirter et al, Proc. Natl. Acad. Sci. USA 96: 8408-8413, 1999) on the interaction between N-TRADD and C-TRAF2 was also evaluated. […]"}, "N-TRADD/C-TRAF2 binding": {"target": "T2, N-TRADD/C-TRAF2 binding (Homo sapiens, UniProt Q12933)", "T2 construct": "The C-TRAF2 (residues 262-501) used in the instant HSQC titration experiment; initiator Met added before residue 262 (N); 6xHis (C); made in house; host or cells: C-TRAF2: baculovirus in 'Tini' cells; N-TRADD: E. coli BL-21", "T2 sequence (Q12933 262-501)": "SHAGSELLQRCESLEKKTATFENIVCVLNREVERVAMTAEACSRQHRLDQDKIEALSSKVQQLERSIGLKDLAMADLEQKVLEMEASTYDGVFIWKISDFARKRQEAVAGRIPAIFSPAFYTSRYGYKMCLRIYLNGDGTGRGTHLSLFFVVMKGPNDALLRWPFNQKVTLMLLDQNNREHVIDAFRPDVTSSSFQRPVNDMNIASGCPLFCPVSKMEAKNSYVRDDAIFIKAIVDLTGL", "test": "1H-15N HSQC NMR study of N-TRADD/C-TRAF2 binding, inhibition by peptide", "settings": "peptide 3 mM; N-TRADD and C-TRAF2 110 μM each; data not shown", "experimental": "(§2) NMR Spectroscopy: All NMR spectra were collected on a 600 MHZ Varian Unity Plus spectrometer. For the backbone assignments, HNCACB and HN(CO)CACB experiments (Clore and Gronenborn, Methods Enzymol. 239: 349-363, 1994; Muhandiram, et al., J. Magn. Reson. B103: 208-216, 1994) were performed. To confirm the type of amino acid assignment, C(CO)NH-TOCSY (Grzesiek, et al., J. Magnetic Resonance, B101: 114-119, 1993) was used. Side chain resonances were assigned from the following experiments: HBHA(CO)NH (Clore and Gronenborn, Methods Enzymol. 239: 349-363, 1994), HC(CO)NH-TOCSY (Grzesiek, et al., J. Magnetic Resonance. B101: 114-119, 1993) for the ^15N/^13C sample in 90% H2O, 10% D2O, HCCH-TOCSY for the ^15N/^13C-labeled sample in D2O, and ^15N-TOCSY-HSQC with the uniformly labeled ^15N protein.\nThe ^1H-^15N HSQC of N-TRADD was used as a tool to map the binding interface with C-TRAF2, since the chemical shifts of contact residues will be perturbed upon complex formation. […] The C-TRAF2 (residues 262-501) used in the instant HSQC titration experiment (at 120 μM) is also a trimer, as determined by size exclusion chromatography. […] N-TRADD Mutagenesis and interactions between C-TRAF2 and N-TRADD: In order to further characterize the amino acids in N-TRADD that are involved in C-TRAF2 recognition, site directed mutants of N-TRADD were prepared and evaluated for their ability to bind C-TRAF2. […]"}, "N-TRADD [2]": {"target": "T3, N-TRADD (Homo sapiens, UniProt Q15628)", "T3 construct": "The polypeptide for N-TRADD (1-169) was overexpressed in BL-21 E. coli; His tag (C); made in house; host or cells: E. coli BL-21, vector pRSETB", "T3 sequence (Q15628 1-169)": "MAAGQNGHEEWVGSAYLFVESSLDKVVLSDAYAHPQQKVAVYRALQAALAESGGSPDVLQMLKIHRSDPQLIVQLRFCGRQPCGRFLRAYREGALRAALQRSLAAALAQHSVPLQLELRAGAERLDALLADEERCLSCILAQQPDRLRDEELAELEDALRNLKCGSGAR", "test": "1H-15N HSQC of N-TRADD with addition of peptide", "assay_type": "binding", "experimental": "as §2\nInhibition by the CD40-derived peptide was also observed in the ^1H-^15N HSQC studies of N-TRADD/C-TRAF2 binding. At stoichiometric concentrations of N-TRADD and C-TRAF2 (110 μM each), HSQC peaks for N-TRADD have broadened out due to binding to C-TRAF2 as described above."}, "N-TRADD [3]": {"target": "T3, N-TRADD", "test": "BIAcore experiment, CD40 peptide with N-TRADD", "assay_type": "binding", "settings": "final peptide concentration approximately 15 mM; data not shown"}, "[4]": {"target": "T4, C-TRAF2 (residues 262 to 501 of human TRAF2) (human, UniProt Q12933 262-501)", "T4 construct": "range 262-501; Expressed by baculovirus; Amine-coupled to a CM5 chip in the BIAcore experiments; also called C-terminal domain of TRAF2; C-TRAF2 (residues 262-501)", "T4 sequence": "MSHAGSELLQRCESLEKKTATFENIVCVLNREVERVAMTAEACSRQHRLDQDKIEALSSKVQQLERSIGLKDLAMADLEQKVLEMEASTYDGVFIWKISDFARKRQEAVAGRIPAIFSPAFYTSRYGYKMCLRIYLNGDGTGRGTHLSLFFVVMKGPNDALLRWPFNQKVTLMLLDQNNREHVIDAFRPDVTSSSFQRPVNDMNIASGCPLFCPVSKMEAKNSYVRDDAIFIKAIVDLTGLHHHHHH", "test": "inhibition of the N-TRADD/C-TRAF2 interaction; competitor N-TRADD"}, "[5]": {"target": "T4, C-TRAF2 (residues 262 to 501 of human …)", "test": "BIAcore (SPR), C-TRAF2 amine-coupled to CM5 chip, N-TRADD in flow", "experimental": "as §1, with “µL/min)” for “μL/min)”, “µM” for “μM”"}, "[6]": {"target": "T4, C-TRAF2 (residues 262 to 501 of human …)", "test": "BIAcore surface plasmon resonance, C-TRAF2 (printed TF2-C) coupled to the CM5 chip, N-TRADD mutant in the flow"}, "[7]": {"target": "T4, C-TRAF2 (residues 262 to 501 of human …)", "test": "BIAcore (SPR), C-TRAF2 on chip", "experimental": "as §1, with “µL/min)” for “μL/min)”, “µM” for “μM”"}, "[8]": {"target": "T4, C-TRAF2 (residues 262 to 501 of human …)", "test": "BIAcore (SPR)"}, "[9]": {"target": "B1", "test": "1H-15N HSQC NMR"}, "[10]": {"target": "T4, C-TRAF2 (residues 262 to 501 of human …)", "test": "BIAcore competition; competitor N-TRADD"}}, "note": "Ends that are not written are not given here."}
{"molecule": "SNTAAPVQETLHG-OH [13-mer peptide derived from CD40, SNTAAPVQETLHG-OH]", "values": [{"measurement": "inhibition of the interaction between N-TRADD and C-TRAF2 (in words)", "setting": "[1]", "value": "inhibited"}, {"measurement": "effect on 1H-15N HSQC spectrum of N-TRADD broadened by C-TRAF2", "setting": "N-TRADD/C-TRAF2 binding", "value": "restored the ^1H-^15N HSQC spectrum of N-TRADD alone"}, {"measurement": "interaction between N-TRADD and peptide (changes in 1H-15N HSQC of N-TRADD)", "setting": "N-TRADD [2]", "value": "No interaction"}, {"measurement": "interaction between peptide and N-TRADD by BIAcore", "setting": "N-TRADD [3]", "value": "lack of interaction"}]}
{"molecule": "YPIQET (Peptide of McWhirter et al; also called CD40-pl; 6-mer peptide)", "note": "[CD40-p1 peptide (YPIQET)]", "values": [{"measurement": "IC50", "setting": "[4]", "value": "~200", "unit": "µM"}]}
{"molecule": "B1", "values": [{"measurement": "Kd", "setting": "[5]", "value": 6, "unit": "µM"}]}
{"molecule": "N-TRADD D149A mutant protein (other, Single point mutant of the N-TRADD (1-169) construct; not shown: His tag after aa169 of the N-TRADD construct) MAAGQNGHEEWVGSAYLFVESSLDKVVLSDAYAHPQQKVAVYRALQAALAESGGSPDVLQMLKIHRSDPQLIVQLRFCGRQPCGRFLRAYREGALRAALQRSLAAALAQHSVPLQLELRAGAERLDALLADEERCLSCILAQQPDRLRAEELAELEDALRNLKCGSGAR", "values": [{"measurement": "binding result", "setting": "[6]", "value": "binds"}]}
{"molecule": "N-TRADD H65A mutant protein (other, Single point mutant of the N-TRADD (1-169) construct; not shown: His tag after aa169 of the N-TRADD construct) MAAGQNGHEEWVGSAYLFVESSLDKVVLSDAYAHPQQKVAVYRALQAALAESGGSPDVLQMLKIARSDPQLIVQLRFCGRQPCGRFLRAYREGALRAALQRSLAAALAQHSVPLQLELRAGAERLDALLADEERCLSCILAQQPDRLRDEELAELEDALRNLKCGSGAR", "values": [{"measurement": "binding result", "setting": "[6]", "value": "binds"}]}
{"molecule": "N-TRADD Y16A mutant protein (other, Single point mutant of the N-TRADD (1-169) construct; not shown: His tag after aa169 of the N-TRADD construct) MAAGQNGHEEWVGSAALFVESSLDKVVLSDAYAHPQQKVAVYRALQAALAESGGSPDVLQMLKIHRSDPQLIVQLRFCGRQPCGRFLRAYREGALRAALQRSLAAALAQHSVPLQLELRAGAERLDALLADEERCLSCILAQQPDRLRDEELAELEDALRNLKCGSGAR", "values": [{"measurement": "fold reduction in C-TRAF2 affinity against wild-type N-TRADD", "setting": "[7]", "value": "~16", "unit": "fold"}]}
{"molecule": "N-TRADD I72A mutant protein (other, also called 172A (so in the source); not shown: His tag after aa169 of the N-TRADD construct) MAAGQNGHEEWVGSAYLFVESSLDKVVLSDAYAHPQQKVAVYRALQAALAESGGSPDVLQMLKIHRSDPQLAVQLRFCGRQPCGRFLRAYREGALRAALQRSLAAALAQHSVPLQLELRAGAERLDALLADEERCLSCILAQQPDRLRDEELAELEDALRNLKCGSGAR", "values": [{"measurement": "binding result", "setting": "[6]", "value": "binds"}]}
{"molecule": "SNTAAPVQETLHG-OH (Synthesised by Fmoc solid-phase methods; printed with a free C-terminus (-OH); also called CD40 peptide; CD40-derived peptide)", "note": "[13-mer peptide derived from CD40 (SNTAAPVQETLHG-OH)]", "values": [{"measurement": "Kd", "setting": "[8]", "value": "~1000", "unit": "µM"}, {"measurement": "binding result", "setting": "[9]", "value": "no binding"}, {"measurement": "IC50", "setting": "[10]", "value": "~1000", "unit": "µM"}]}
